# Publication PMC3210727
# Where “and” joins values, the source holds several entries; their conditions need not be identical. Identical values can stand only once.
# Target: H3N2 A/Hong Kong/1/1968 HA [change] (influenza A virus A/Hong Kong/1/1968 (H3N2))
substance,measurement,value
human monoclonal antibody CR8020,Kd,2 nM and 3 nM
